The text below walks through data of article PMC5046105, “Improved affinity at the cost of decreased specificity: a recurring theme in PDZ-peptide interactions” (Scientific Reports, 2016).

Ends that are not written are not given here.

The test system of one experiment is PDZØ9. Put plainly: Proteomic peptide-phage display (ProP-PD) selection, PDZØ9 as bait. More on the design: species or system human. To be noted: number of this peptide among 76 sequenced binding clones after round three of ProP-PD selection. The procedure: (§1) The peptide-phage library used in the selections consisted of 50,549 heptapeptides representing the C-terminal sequences of the human proteome, fused to the C-terminus of the major coat protein pVIII of the M13 phage. This library was developed and successfully used for the rapid isolation of potential cellular PDZ domain targets, as previously reported.
(§2) Individual binding clones were isolated and sequenced (see Table 1).
(§3) Peptide-phage selections against PDZØ9 and pWT PDZ2 were performed with a previously developed library of 50549 heptapeptides, representing all of the C-terminal sequences in the human proteome. Peptides are fused to the C-terminus of the gene-8 major coat protein of M13 phage and hereby referred to as the naïve peptide library. Each of the two selections was performed twice. First, the two lipoyl-PDZ proteins were used to coat 96-well Maxisorp microtiter plates (NUNC) by incubation overnight at 4 °C (15 μg of protein in 100 μl of PBS per well). For the first round of selection, two wells were used for each PDZ, whereas a single well was used for the following selections. In parallel, wells were coated with lipoyl domain alone in order to remove nonspecific binders by a preselection step. The following day, wells were blocked with 200 μl of 0.5% BSA in PBS for 1 h at 4 °C, and washed four times with PT buffer [PBS, 0.05% Tween-20] before addition of phages. Phage pools representing the naïve peptide library were diluted 50-fold in PBS, precipitated with PEG/NaCl [4% PEG-8000 and 0.5 M NaCl] by incubation for 10 min on ice, pelleted by centrifugation (10 min, 16000 × g), and resuspended in PBS. For each selection round, 100 μl of resuspended phage was added to the preselection wells and incubated for 1 h at 4 °C before transfer to the target wells in which they were incubated for 2 h at 4 °C. The wells were washed five times with PT buffer and bound phages were eluted by direct infection of bacteria through the addition of 100 μl log-phase Escherichia coli Omnimax (Invitrogen) in 2TY, followed by 30 min incubation at 37 °C with shaking. Phage production was initiated by the addition of M13K07 helper phage (New England Biolabs) to a final concentration of 10^10 phage/ml and continued incubation at 37 °C for 45 min. The cultures were then transferred to 10 ml 2TY containing 100 μg/ml carbenicillin, 30 μg/ml kanamycin, and 1 mM IPTG, and shaken overnight at 37 °C. The bacteria were pelleted by centrifugation (10 min, 5300 × g), and the phage-containing supernatant was transferred to a new tube in which phages were precipitated with PEG/NaCl as described above, pelleted by centrifugation (15 min, 5300 × g), and resuspended in 1 ml of PBS. The resuspended phages, hereby-denoted Øout, were then used for the next round of selection. A total of five rounds were carried out and the enrichment of phages specific for the target was monitored by analysing aliquots of Øout in a phage ELISA performed as described below. For each of the five rounds of the respective selection, 10 μg of target protein and lipoyl domain were individually coated in parallel wells using the same type of plate, procedure, and blocking the following day, as described for the selection rounds above. When the 200 μl of blocking solution had been aspirated, 100 μl of resuspended phage was added and incubated for 30 min at 4 °C.

The test system of another experiment is pWT PDZ2. The experiment can be described thus: Proteomic peptide-phage display (ProP-PD) selection, pWT PDZ2 as bait. The note with it: number of this peptide among 71 sequenced binding clones after round three of ProP-PD selection. More on the design: species or system human. The procedure:
as §1, §2, §3

A further experiment deals with pWT PDZ2 K392M (human) (UniProt Q12959). The experiment can be described thus: stopped-flow spectroscopy.
pWT PDZ2 K392M (human), sequence (Q12959 311-407, stated change not applied): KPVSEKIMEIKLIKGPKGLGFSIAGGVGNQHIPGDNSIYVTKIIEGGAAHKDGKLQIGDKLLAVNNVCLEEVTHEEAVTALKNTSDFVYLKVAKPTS
The target of experiment [1] is pWT PDZ2 L391F (human) (UniProt Q12959). Put plainly: stopped-flow spectroscopy.
pWT PDZ2 L391F (human), sequence (Q12959 311-407, stated change not applied): as the sequence (Q12959 311-407, stated change not applied) above
The target of experiment [2] is PDZØ9, engineered variant (L391F/K392M) of pWT SAP97 PDZ2 (human) (UniProt Q12959). Put plainly: stopped-flow spectroscopy.
PDZØ9, engineered variant (L391F/K392M) of pWT SAP97 PDZ2 (human), sequence (Q12959 311-407, stated change not applied): as the sequence (Q12959 311-407, stated change not applied) above
Experiment [3] concerns the target Pseudo wild type SAP97 PDZ2 (second PDZ domain of synapse associated protein 97, I342W/C378A) (human) (UniProt Q12959). The experiment can be described thus: stopped-flow spectroscopy.
In experiment [4] the target is pWT PDZ2 L391F (human) (UniProt Q12959). The experiment can be described thus: ITC; PGKETQL peptide titrated into pWT PDZ2 L391F; iTC200, 10 °C, 50 mM potassium phosphate, pH 7.5; 1:1 model; duplicate titrations, average parameters.

Pseudo wild type SAP97 PDZ2 (second PDZ domain of synapse associated protein 97, I342W/C378A) (human), sequence (Q12959 311-407, stated change not applied): as the sequence (Q12959 311-407, stated change not applied) above

For AGKTTIL, in the experiment with PDZØ9, the “Prevalence, PDZØ9 (76)” value worked out at 1.

For the molecule AGRETTV, in the experiment on pWT PDZ2, the “Prevalence, pWT PDZ2 (71)” value was 1.

Consider IKTETTV, for which the “Prevalence, PDZØ9 (76)” value in the experiment on PDZØ9 came to 1. Further, the “Prevalence, pWT PDZ2 (71)” value in the experiment with pWT PDZ2 stood at 7.

For the molecule KGTETTL, the “Prevalence, PDZØ9 (76)” value in the experiment on PDZØ9 is recorded as 1.

With KIKETTV, the “Prevalence, PDZØ9 (76)” value in the experiment on PDZØ9 is 1. Also, the “Prevalence, pWT PDZ2 (71)” value in the experiment on pWT PDZ2 came to 3.

With RAISTDV, the “Prevalence, PDZØ9 (76)” value in the experiment with PDZØ9 is 2.

In the case of WKHETTV, the “Prevalence, PDZØ9 (76)” value in the experiment on PDZØ9 came to 4. Further, the “Prevalence, pWT PDZ2 (71)” value in the experiment with pWT PDZ2 worked out at 5.

WKNETTV: the “Prevalence, PDZØ9 (76)” value with PDZØ9 was 1. Also, in the experiment with pWT PDZ2, the “Prevalence, pWT PDZ2 (71)” value is on record as 1.

In the case of WKSETTV, the “Prevalence, PDZØ9 (76)” value with PDZØ9 came out at 1. In addition, the “Prevalence, pWT PDZ2 (71)” value with pWT PDZ2 turned out to be 1.

In the case of YKKETPL, the “Prevalence, PDZØ9 (76)” value with PDZØ9 is recorded as 1.

B1: VSKETPL peptide (C-terminus of mitogen-activated protein kinase 12, p38γ) (peptide)
peptide: Ac-VSKETPL
What is called koff is the first-order rate constant of dissociation. Low values mean a long-lived complex, high ones a short-lived complex. The kon is the second-order rate constant of association. Turning to B1, the koff in the experiment with pWT PDZ2 K392M (human) was 150 s⁻¹; with pWT PDZ2 L391F (human) [1], 8.8 s⁻¹; in experiment [2], 6.3 s⁻¹; in experiment [3], 154 s⁻¹. The kon was found to be 2.4e+07 M⁻¹ s⁻¹ with pWT PDZ2 K392M (human), 1.1e+07 M⁻¹ s⁻¹ in the experiment with pWT PDZ2 L391F (human) [1], 8.4e+06 M⁻¹ s⁻¹ in experiment [2] and 4e+07 M⁻¹ s⁻¹ in experiment [3].

B2: TSRETDL peptide (C-terminus of potassium voltage-gated channel subfamily A member 5, Kv1.5) (peptide)
peptide: Ac-TSRETDL
For B2, the off-rate (koff) in the experiment with pWT PDZ2 K392M (human) was 62 s⁻¹; in the experiment with pWT PDZ2 L391F (human) [1], 3.8 s⁻¹; in experiment [2] it was 2.6 s⁻¹; in experiment [3], 71 s⁻¹. Moreover, the kon was 1.5e+07 M⁻¹ s⁻¹ in the experiment with pWT PDZ2 K392M (human), 1.8e+07 M⁻¹ s⁻¹ in the experiment with pWT PDZ2 L391F (human) [1], 1.5e+07 M⁻¹ s⁻¹ in experiment [2] and 3.3e+07 M⁻¹ s⁻¹ in experiment [3].

B3: EKKHTLL peptide (C-terminus of E9PN86_HUMAN, partial transcript of EIF3M_HUMAN) (peptide)
peptide: Ac-EKKHTLL
As to B3, the koff in the experiment with pWT PDZ2 K392M (human) was 157 s⁻¹; with pWT PDZ2 L391F (human) [1] it was 7.1 s⁻¹; in experiment [2] it was 7.9 s⁻¹; in experiment [3], 112 s⁻¹. Besides, the kon with pWT PDZ2 K392M (human) came to 1.1e+07 M⁻¹ s⁻¹; in the experiment with pWT PDZ2 L391F (human) [1], 1.1e+07 M⁻¹ s⁻¹; in experiment [2], 1.4e+07 M⁻¹ s⁻¹; in experiment [3] it was 1.2e+07 M⁻¹ s⁻¹.

B4: NSKETVV peptide (C-terminus of E3 ubiquitin-protein ligase MARCH3) (peptide)
peptide: Ac-NSKETVV
Regarding B4, the koff came to 7.7 s⁻¹ with pWT PDZ2 K392M (human), 1.9 s⁻¹ in the experiment with pWT PDZ2 L391F (human) [1], 1.6 s⁻¹ in experiment [2] and 8.6 s⁻¹ in experiment [3]. For the same molecule, the kon with pWT PDZ2 K392M (human) came to 9.7e+06 M⁻¹ s⁻¹; with pWT PDZ2 L391F (human) [1], 1.3e+07 M⁻¹ s⁻¹; in experiment [2], 1e+07 M⁻¹ s⁻¹; in experiment [3], 1.3e+07 M⁻¹ s⁻¹.

B5: PGKETQL peptide (C-terminus of SO1C1_HUMAN) (peptide)
peptide: Ac-PGKETQL
As a reminder, the Kd is a measure of binding affinity in units of concentration. A low value points to tighter binding. One may read the stoichiometry N as the number of molecules, sites or subunits per partner or assembly. Turning to B5, the dissociation rate constant (koff) with pWT PDZ2 K392M (human) was found to be 48 s⁻¹; with pWT PDZ2 L391F (human) [1] it was 5 s⁻¹; in experiment [2], 3.9 s⁻¹; in experiment [3], 51 s⁻¹. Further, the kon worked out at 1.8e+07 M⁻¹ s⁻¹ in the experiment with pWT PDZ2 K392M (human), 2e+07 M⁻¹ s⁻¹ with pWT PDZ2 L391F (human) [1], 1.6e+07 M⁻¹ s⁻¹ in experiment [2] and 1.8e+07 M⁻¹ s⁻¹ in experiment [3]. Besides, the Kd with pWT PDZ2 L391F (human) [4] was 310 nM. For the same molecule, the stoichiometry N with pWT PDZ2 L391F (human) [4] was determined as 0.76.

B6: YRRESAI peptide (C-terminus of inward rectifier potassium channel 4, Kir2.3) (peptide)
peptide: Ac-YRRESAI
In the case of B6, the koff in the experiment with pWT PDZ2 K392M (human) was 105 s⁻¹; in the experiment with pWT PDZ2 L391F (human) [1], 15 s⁻¹; in experiment [2], 17 s⁻¹; in experiment [3], 87 s⁻¹. Besides, the kon in the experiment with pWT PDZ2 K392M (human) was found to be 2.5e+07 M⁻¹ s⁻¹; with pWT PDZ2 L391F (human) [1] it was 1.9e+07 M⁻¹ s⁻¹; in experiment [2], 2.2e+07 M⁻¹ s⁻¹; in experiment [3], 1.9e+07 M⁻¹ s⁻¹.

B7: SARSTDV peptide (C-terminus of anoctamin-9) (peptide)
peptide: SARSTDV
In the case of B7, the koff with pWT PDZ2 K392M (human) was found to be 25 s⁻¹; with pWT PDZ2 L391F (human) [1] it was 4 s⁻¹; in experiment [2], 3.4 s⁻¹; in experiment [3] it was 26 s⁻¹. The association rate constant (kon) came to 1.2e+07 M⁻¹ s⁻¹ with pWT PDZ2 K392M (human), 1.8e+07 M⁻¹ s⁻¹ with pWT PDZ2 L391F (human) [1], 1.3e+07 M⁻¹ s⁻¹ in experiment [2] and 1.6e+07 M⁻¹ s⁻¹ in experiment [3].
